Measured values as given in patent publication US20220324970A1 (Janssen / Centocor, published 2022).

Key:
[1] = target: T1, human pIgR, full-length, on cells (human, UniProt P01833 19-764); experiment: cell-based or functional assay
hpIgR_D2-D3 [2] = target: T2, hpIgR_D2-D3; experiment: BLI (Octet RED384), 1:1 fit, 25 C, PBS; column kdis
T2 construct: HIS-tagged construct from HEK293 cells; also called human pIgR extracellular domain 2-domain 3 (D2-D3); hD2-D3
T2 HIS-tagged domain construct: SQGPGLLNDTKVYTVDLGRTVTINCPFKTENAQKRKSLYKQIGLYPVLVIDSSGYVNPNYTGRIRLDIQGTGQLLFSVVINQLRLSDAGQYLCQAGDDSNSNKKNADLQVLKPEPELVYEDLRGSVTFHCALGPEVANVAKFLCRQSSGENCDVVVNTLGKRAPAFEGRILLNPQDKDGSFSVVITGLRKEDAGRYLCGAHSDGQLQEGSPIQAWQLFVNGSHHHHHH

[3] = target: T3, human pIgR extracellular domain (ECD) (human, UniProt P01833 19-638); experiment: as above
T3 construct: also called hpIgR ECD

[4] = target: T4, human pIgR extracellular domain 1-domain 2 (D1-D2) (human, UniProt P01833 19-240); experiment: as above
T4 construct: HIS-tagged construct made in HEK293 cells

[5] = target: T5, human pIgR extracellular domain 2 (D2) (human, UniProt P01833 128-242); experiment: as above
T5 construct: HIS-tagged construct made in HEK293 cells; also called hpIgR domain 2

[6] = target: T3, human pIgR extracellular domain (ECD); experiment: ECL (MSD), anti-VHH detection against anti-Fc detection
[7] = target: T3, human pIgR extracellular domain (ECD); experiment: ECL (MSD), hpIgR-ECD coated, anti-Fc detection
[8] = target: T3, human pIgR extracellular domain (ECD); experiment: BLI; summary table, repeats Table 1
[9] = target: T6, human pIgR extracellular domain 4-domain 5 (D4-D5) (human, UniProt P01833 350-565); experiment: ECL (MSD) heat map, HIS-tagged construct captured via anti-HIS, anti-human-Fc detection
T6 construct: HIS-tagged construct made in HEK293 cells; also called hpIgR domains 4-5
T6 chain: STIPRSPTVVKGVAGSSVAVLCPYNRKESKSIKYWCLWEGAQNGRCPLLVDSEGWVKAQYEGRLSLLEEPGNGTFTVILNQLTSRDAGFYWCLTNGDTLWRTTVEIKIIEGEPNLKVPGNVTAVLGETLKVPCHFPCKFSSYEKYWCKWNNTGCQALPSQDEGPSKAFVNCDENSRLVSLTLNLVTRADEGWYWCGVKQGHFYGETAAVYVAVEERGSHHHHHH
Description: The Electrochemiluminescence assay was performed as follows. A meso-scale discovery (MSD) platform was used for conducting epitope mapping and epitope burial studies. To test the binding of VHH-mono-Fc molecules to purified pIgR protein constructs, Streptavidin MSD plates were coated with a biotinylated anti-HIS antibody (2 μg/ml in PBS) for 1 hour at RT with 1000 rpm, washed 3× with PBT (PBS+0.1% Tween-20), incubated with blocking buffer for 1 hour at RT, incubated with His-tagged pIgR proteins (10 μg/ml in PBS) for 2 hours at RT with 1000 rpm, washed 3× with PBT, incubated with VHH-mono-Fc molecules (100 μg/ml in PBS) for 2 hours at RT with 1000 rpm, washed 3× with PBT, incubated with ruthenylated-anti-human-Fc antibody (2 μg/ml in PBS) for 1 hour at RT with 1000 rpm, washed 3× with PBT and read plates in 40 ul reading buffer using the MSD imager. ECLU values were plotted as a heatmap.

[10] = target: T3, human pIgR extracellular domain (ECD); experiment: BLI (Octet), VHH-mono-Fc and hpIgR ectodomain
hpIgR_D2-D3 [11] = target: T2, hpIgR_D2-D3; experiment: BLI (Octet RED384), 1:1 fit, 25 C, PBS
Description: (§1) Bio-layer Interferometry was performed as follows. […] Data were collected with Octet Data Acquisition version 7.1.0.87 (ForteBio) and analyzed using Octet Data Analysis version 7.1 (ForteBio). To measure binding kinetics between VHH-mono-Fc molecules and HIS-tagged pIgR proteins, VHH-mono-Fc was immobilized on amine-reactive generation-2 (ARG2) biosensors according to manufacturer's instructions and increasing concentrations of pIgR proteins were exposed to sensor-immobilized VHH. In some cases, HIS-tagged pIgR proteins were immobilized on anti-HIS biosensors and exposed to increasing concentrations of VHH-mono-Fc molecules. Association and dissociation rates were measured by the shift in wavelength (nm). […] All reactions were performed at 25° C. in PBS.

[12] = target: T3, human pIgR extracellular domain (ECD); experiment: BLI (Octet RED384), 1:1 fit, 25 C, PBS
Description: as §1

[13] = target: T4, human pIgR extracellular domain …; experiment: BLI (Octet RED384), 1:1 fit, 25 C, PBS
Description: as §1

[14] = target: T5, human pIgR extracellular domain 2 (D2); experiment: BLI (Octet RED384), 1:1 fit, 25 C, PBS
Description: as §1

[15] = target: T1, human pIgR, full-length, on cells; experiment: cell-based or functional assay; remark: listed apart in the source
[16] = target: T1, human pIgR, full-length, on cells; experiment: flow cytometry on MDCK-hpIgR cells; summary table, repeats Table 1
[17] = target: T7, human pIgR extracellular domain 1 (D1) (human, UniProt P01833 19-127); experiment: ECL (MSD) heat map, HIS-tagged construct captured via anti-HIS, anti-human-Fc detection;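 further: VHH-mono-Fc molecules tested at 100 µg/ml for 2 h on captured His-tagged pIgR constructs (10 µg/ml), read-out as electrochemiluminescence units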
T7 construct: HIS-tagged construct made in HEK293 cells; also called hpIgR domain-1

[18] = target: T8, human pIgR extracellular domain 5 (D5) (human, UniProt P01833 460-565); experiment: as above
T8 construct: HIS-tagged construct made in HEK293 cells; also called hpIgR domain 5

hpIgR_D3 = target: T9, hpIgR_D3; experiment: as above
T9 construct: HIS-tagged construct from HEK293 cells; also called human pIgR extracellular domain 3 (D3); hD3
T9 HIS-tagged domain construct: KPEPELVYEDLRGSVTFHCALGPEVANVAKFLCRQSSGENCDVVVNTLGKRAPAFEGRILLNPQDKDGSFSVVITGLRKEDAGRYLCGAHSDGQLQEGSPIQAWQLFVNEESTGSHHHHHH

[19] = target: T1, human pIgR, full-length, on cells; experiment: flow cytometry on MDCK-hpIgR cells; summary table, repeats Table 1; remark: listed apart in the source
[20] = target: T3, human pIgR extracellular domain (ECD); experiment: BLI; summary table, repeats Table 1; remark: listed apart in the source
[21] = target: T3, human pIgR extracellular domain (ECD); experiment: ECL (MSD), hpIgR-ECD coated, anti-VHH detection
[22] = target: T1, human pIgR, full-length, on cells; experiment: cell-based or functional assay; remark: listed apart in the source
[23] = target: T1, human pIgR, full-length, on cells; experiment: flow cytometry on MDCK-hpIgR cells
Description: Flow Cytometry was performed as follows. To test whether VHH-mono-Fc molecules recognize cell-surface hpIgR, Madin-Darby canine kidney (MDCK) cells engineered to express full-length hpIgR were used. Cells were cultured in Dulbecco's modified Eagle's medium containing 10% fetal calf serum at 37° C. with 5% CO₂. Cells were split into equal fractions (≈70,000 cells) and incubated with increasing concentrations of VHH-mono-Fc molecules for 30 min at 4 C. […] Cells were washed twice with cold staining buffer, resuspended in running buffer and analyzed with an iQue Screener (IntelliCyt Corporation). Binding was assessed by RL1 (A647) Geomeans from the live cell population and EC50 was calculated by fitting log VHH concentration versus MFI in Prism (Graphpad).

T1 sequence (P01833 19-764): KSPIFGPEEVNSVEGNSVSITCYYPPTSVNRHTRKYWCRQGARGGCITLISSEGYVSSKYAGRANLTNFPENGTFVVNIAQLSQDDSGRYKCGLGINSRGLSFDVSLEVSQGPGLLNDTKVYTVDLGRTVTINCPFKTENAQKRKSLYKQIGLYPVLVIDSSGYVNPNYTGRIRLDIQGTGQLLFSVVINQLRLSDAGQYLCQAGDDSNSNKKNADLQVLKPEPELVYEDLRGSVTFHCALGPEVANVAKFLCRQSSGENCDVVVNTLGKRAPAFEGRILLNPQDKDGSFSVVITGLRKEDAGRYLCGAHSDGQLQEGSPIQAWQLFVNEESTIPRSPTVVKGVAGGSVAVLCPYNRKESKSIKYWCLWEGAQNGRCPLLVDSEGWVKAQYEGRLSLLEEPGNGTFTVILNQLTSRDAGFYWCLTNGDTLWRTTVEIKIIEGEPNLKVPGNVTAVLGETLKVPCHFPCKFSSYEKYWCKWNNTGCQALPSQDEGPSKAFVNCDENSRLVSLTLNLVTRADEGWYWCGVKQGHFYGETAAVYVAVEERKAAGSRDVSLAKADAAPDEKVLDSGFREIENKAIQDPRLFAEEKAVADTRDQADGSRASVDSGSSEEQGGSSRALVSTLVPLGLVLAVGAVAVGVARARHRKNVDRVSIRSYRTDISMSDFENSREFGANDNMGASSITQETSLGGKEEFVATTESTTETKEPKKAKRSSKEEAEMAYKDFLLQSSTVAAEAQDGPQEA
T3 sequence (P01833 other isoform, or with tags, fused parts or gaps): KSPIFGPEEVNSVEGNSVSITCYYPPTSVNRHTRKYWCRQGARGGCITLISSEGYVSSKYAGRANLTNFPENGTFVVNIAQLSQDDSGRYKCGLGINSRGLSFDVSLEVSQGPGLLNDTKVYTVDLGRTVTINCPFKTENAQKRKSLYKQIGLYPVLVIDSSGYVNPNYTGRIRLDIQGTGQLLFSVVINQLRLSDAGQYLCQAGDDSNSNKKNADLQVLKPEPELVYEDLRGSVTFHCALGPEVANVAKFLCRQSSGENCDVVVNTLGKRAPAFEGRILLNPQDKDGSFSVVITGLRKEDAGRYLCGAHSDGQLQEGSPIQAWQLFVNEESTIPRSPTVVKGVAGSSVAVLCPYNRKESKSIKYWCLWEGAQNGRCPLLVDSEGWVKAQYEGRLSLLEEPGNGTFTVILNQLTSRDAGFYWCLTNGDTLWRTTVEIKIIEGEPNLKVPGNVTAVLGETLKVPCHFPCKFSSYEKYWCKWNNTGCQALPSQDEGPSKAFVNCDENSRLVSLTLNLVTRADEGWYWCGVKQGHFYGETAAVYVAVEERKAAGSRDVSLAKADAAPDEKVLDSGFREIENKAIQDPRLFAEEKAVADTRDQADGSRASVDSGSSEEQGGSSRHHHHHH
T4 sequence (P01833 other isoform, or with tags, fused parts or gaps limits assumed): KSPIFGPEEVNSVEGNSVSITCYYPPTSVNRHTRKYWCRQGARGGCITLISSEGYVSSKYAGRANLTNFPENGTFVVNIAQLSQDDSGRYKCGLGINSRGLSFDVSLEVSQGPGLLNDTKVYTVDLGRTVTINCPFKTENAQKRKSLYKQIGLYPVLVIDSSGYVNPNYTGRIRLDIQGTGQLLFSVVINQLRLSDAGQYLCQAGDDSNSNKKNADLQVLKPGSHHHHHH
T7 sequence (P01833 other isoform, or with tags, fused parts or gaps limits assumed): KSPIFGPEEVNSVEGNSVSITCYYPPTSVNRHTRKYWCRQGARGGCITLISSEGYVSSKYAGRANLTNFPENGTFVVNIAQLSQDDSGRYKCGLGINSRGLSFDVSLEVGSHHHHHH

B1: VHH6-linker-mono-Fc protein (Fc fusion)
chain: EVQLVESGGGLVQAGGSLRLSCAVSGSSVSSDAMGWYRQAPGNQRAWVAFISGGGTTTYADSVKGRFTISRDNTKNTVYLHMNSLKPEDTAVYYCNHPLTSRWGQGTQVTVSSEPKTPKPQPQPQLQPQPNPTTESKSPKSPAPELLGGPSVFLFPPKPKDTLMISRTPEVTCVVVDVSHEDPEVKFNWYVDGVEVHNAKTKPREEQYNSTYRVVSVLTVLHQDWLNGKEYKCKVSNKALPAPIEKTISKAKGQPREPQVYTKPPSREEMTKNQVSLSCLVKGFYPSDIAVEWESNGQPENNYKTTVPVLDSDGSFRLASYLTVDKSRWQQGNVFSCSVMHEALHNHYTQKSLSLSPGK
notes: made in CHO cells; also called VHH6-mono-Fc; hpIgR_181
With B1 the “For. Trans. (Fold Incr.)” value [1] was 25.6 fold, the “Rev. Trans (Fold Incr.)” value [1] was 14.6 fold and the koff (hpIgR_D2-D3 [2]) was 0.00249 s⁻¹. It also gave a koff [3] of 0.00219 s⁻¹, a koff [4] of 0.00253 s⁻¹ and a koff [5] of 0.00269 s⁻¹. The “Fold change in EC50” value [6] was 1060 fold, the EC50 [7] was 3.9 nM and the Kd [8] was 27 nM. The binding result [9] was “no binding (tested: 100 ug/ml (single concentration))”, the Kd [10] was 27 nM and the Kd (hpIgR_D2-D3 [11]) was 71.5 nM. For the same binder, the kon (hpIgR_D2-D3 [11]) was 34800 M⁻¹ s⁻¹, the Kd [12] was 48.9 nM and the kon [12] was 44700 M⁻¹ s⁻¹. The Kd [13] was 63.2 nM, the kon [13] was 40000 M⁻¹ s⁻¹ and the Kd [14] was 68.1 nM. The kon [14] was 39500 M⁻¹ s⁻¹, the “Transcytosis (Fold Incr.)” value [15] was 30.7 fold and the EC50 [16] was 11.5 nM. B1: no binding (tested: 100 ug/ml (single concentration)) [17]; no binding (tested: 100 ug/ml (single concentration)) [18]; no binding (tested: 100 ug/ml (single concentration)) (hpIgR_D3). For the same binder, the EC50 [19] was 11.5 nM, the Kd [20] was 27 nM and the EC50 [21] was 4190 nM. The “increase in their apical concentration relative to control VHH (MDCK-hpIgR monolayers)” value [22] was greater than 10 fold and the EC50 [23] was 11.5 nM.
